Non-standard residues stand in square brackets, D forms with d. No end group written: not given here. pT = C[C@@H](OP(=O)(O)O)[C@H](N)C(=O)O; pS = N[C@@H](COP(=O)(O)O)C(=O)O
How the values were obtained:
[1] = biological target: T1, HLA-A*0201 (human); test: listed as presented with class I MHC on cancer cells (leukemia or transformed B cells)
T1 construct: also called HLA-A2

[2] = biological target: T2, HLA-B*0702 (human); test: HLA-B7 eluate MS; ALL1; 1 means <1 copy/cell
T2 construct: also called HLA-B7
Excerpt: (§1) The mixture was subjected to centrifugation and the resulting supernatant was passed over protein A sepharose pre-loaded with the HLA-A2-specific antibody BB7.2 or HLA-B7-specific antibody ME1. Peptides were eluted from the purified class I MHC molecules with 10% acetic acid.

[3] = biological target: T2, HLA-B*0702; test: HLA-B7 eluate MS; AML1; 1 means <1 copy/cell
Excerpt: as §1

Binder	binding result [1]	binding result [2]	other results
KVL[pS]TEEMEL (From Protein FAM128B, UniProt Q6NZ67) [KVLsTEEMEL]	binds		
RSG[pS]LERKV (also called C20orf117) [KIAA0889 phosphopeptide RSGsLERKV]		binds	
KPQTRGK[pT]F (also called Carabin) [TBC1D10C phosphopeptide KPQTRGKtF]		binds	
SPEKAGRR[pS]SL [CCDC88B phosphopeptide SPEKAGRRsSL]			binding result [3]: binds
KPPYRSH[pS]L [CCDC45 phosphopeptide KPPYRSHsL]			binding result [3]: binds
RPPPPPD[pT]PP [KLF2 phosphopeptide RPPPPPDtPP]		binds	
RPA[pS]ARAQPGL [C6orf64 phosphopeptide RPAsARAQPGL]		binds	
RP[pS]SPALYF [TSC22D4 phosphopeptide RPsSPALYF]		binds	
KLMAPDI[pS]L [KLMAPDIsL]	binds		
KLLQFYP[pS]L [KLLQFYPsL]	binds		
RQA[pS]LSISV (From Protein kinase 2D, UniProt A0JLT6) [RQAsLSISV]	binds		
SPR[pS]PGKPM [phosphopeptide SPRsPGKPM (no gene name in Table 7; no database hit)]		binds	
GGSFGGRSSG[pS]P (From HNRNPA3, UniProt P51991) [GGSFGGRSSGsP]	binds		
DS[pS]EEKFL (From Statherin (saliva), UniProt P02808) [DSsEEKFL]	binds		
KLF[pS]PSKEAEL (From Protein cramped-like, UniProt Q96RY5) [KLFsPSKEAEL]	binds		
SPA[pS]PKISL [ATXN2L phosphopeptide SPAsPKISL]		binds	
RPR[pS]LEVTI (also called Pyrin) [MEFV phosphopeptide RPRsLEVTI]			binding result [3]: binds
RRS[pS]LDAEIDSL [LPP phosphopeptide RRSsLDAEIDSL]			binding result [3]: binds
KMY[pS]EIDIKV (From 116 kDa U5 small nuclear ribonucleoprotein component, UniProt Q15029) [KMYsEIDIKV]	binds		
RPR[pS]PGSNSKV [GTF2IRD1 phosphopeptide RPRsPGSNSKV]			binding result [3]: binds
RSE[pS]KDRKL [IP6K1 phosphopeptide RSEsKDRKL]		binds	
RLA[pS]LNAEAL (From Bromo adjacent homology domain-containing 1 protein, UniProt Q8TBE0) [RLAsLNAEAL]	binds		
GLL[pS]PARLYAI (From Leucine rich PPR-motif containing protein, UniProt P42704) [GLLsPARLYAI]	binds		
KPA[pS]PARRL [MAP1A phosphopeptide KPAsPARRL]		binds	
SPK[pS]PGLKA [RCSD1 phosphopeptide SPKsPGLKA]		binds	
KVA[pS]LLHQV [KVAsLLHQV]	binds		

Binder	binding result [1]	binding result [2]	other results
MLAE[pS]PSVPRL (From Putative uncharacterized protein, UniProt Q8WUC7) [MLAEsPSVPRL]	binds		
RPN[pS]PSPTAL [TLK1 phosphopeptide RPNsPSPTAL]		binds	
KPR[pS]PDHVL [MACF1 phosphopeptide KPRsPDHVL]		binds	
RPRSLSSPTVTL (also: one of Ser4, Ser6, Ser7 phosphorylated, From E3 ubiquitin-protein ligase NEDD4-like, UniProt Q96PU5) [RPR(sLss)PTVTL]	binds		
KMD[pS]FLDMQL [KMDsFLDMQL]	binds		
KPP[pS]PEHQSL [MORC2 phosphopeptide KPPsPEHQSL]		binds	
RPR[pS]PAARL [ZNF219 phosphopeptide RPRsPAARL]			binding result [3]: binds
YQL[pS]PTKLPSI (From Nibrin/cell cycle regulatory protein p95, UniProt O60934) [YQLsPTKLPSI]	binds		
RPKLS[pS]PAL [EP300 phosphopeptide RPKLSsPAL]			binding result [3]: binds
ILD[pS]GIYRI (From Hermansky-Pudlak syndrome 5 protein, UniProt Q9UPZ3) [ILDsGIYRI]	binds		
KAK[pS]PAPGL (From Nuclear receptor corepressor 2, UniProt Q9Y618) [KAKsPAPGL]	binds		
KIF[pS]GVFVKV (From 60S ribosomal protein L7-like 1, UniProt Q6DKI1) [KIFsGVFVKV]	binds		
LPA[pS]PRARL [MAP7D1 phosphopeptide LPAsPRARL]			binding result [3]: binds
RPW[pS]PAVSA [SKI phosphopeptide RPWsPAVSA]		binds	
RTY[pS]GPMNKV (From POF1B, UniProt Q8WVV4) [RTYsGPMNKV]	binds		
RPH[pS]PEKAF [C17orf85 phosphopeptide RPHsPEKAF]		binds	
RPV[pS]PGKDI [HIVEP2 phosphopeptide RPVsPGKDI]		binds	
VLMKSPSPAL (also: one of S5 or S7 phosphorylated, From YTHDC2, UniProt Q9H6S0) [VLMK(sPs)PAL]	binds		
RSL[pS]PGGAA [RBM15 phosphopeptide RSLsPGGAA]		binds	
RPA[pT]GGPGVA [phosphopeptide RPAtGGPGVA (no gene name in Table 7; Unknown protein)]		binds	
TPI[pS]PGRASGM [RUNX1 phosphopeptide TPIsPGRASGM]		binds	
RQI[pS]FKAEV (From Ubiquitin-conjugating enzyme E2 J1, UniProt Q9Y385) [RQIsFKAEV]	binds		
KLD[pS]PRVTV (From Protein FAM86A, UniProt Q96G04) [KLDsPRVTV]	binds		
RPI[pT]PPRNSA [PPP1CA phosphopeptide RPItPPRNSA]		binds	
TPAQPQRR[pS]L [TPX2 phosphopeptide TPAQPQRRsL]		binds	

— US20150224182A1 (UNIVERSITY OF VIRGINIA PATENT FOUNDATION, published 2015)
